Measurements as given in US20230381333A1 (HANMI PHARM, published 2023).
Bridge positions count the residues as written; N and C are the ends. Square brackets hold non-standard residues; d marks the D form. Ends that are not written are not given here. Aib = CC(C)(N)C(=O)O

Target: human GLP-1 receptor (human, UniProt P43220 24-463)
Assay: cell-based or functional assay

Binder | In vitro activity compared to native-type peptide (%), vs GLP-1
HGQGTFTSDCSKYLDGQRAQDFVNWLLAGGPSSGAPPPS [triple agonist of SEQ ID NO: 48] | 1.5%
HGQGTFTSDCSKYLDEQHAQEFVAWLLAGGPSSGAPPPS [triple agonist of SEQ ID NO: 46] | 1.4%
H[Aib]QGTFTSDYSKYLDEKRQKEFVQWLLDTC (bridge 16-20) [triple agonist of SEQ ID NO: 52] | 44.1%
H[Aib]QGTFTSDYSKYLDEKRQKEFVNWLLAQC (also: ring formation (underlined residues), positions not given here) [triple agonist of SEQ ID NO: 56] | 57.9%
H[Aib]QGTFTSDVSSYLDGQAAKEFIAWLVKGC [triple agonist of SEQ ID NO: 1] | 3.2%
H[Aib]QGTFTSDYSKYLCEKRQKEFVQWLLNGGPSSGAPPPSG (bridge 16-20) [triple agonist of SEQ ID NO: 36] | 37.4%
H[Aib]QGTFTSDYSKYLDEKRAKEFVQWLLDHHPSSGQPPPSC (bridge 16-20) [triple agonist of SEQ ID NO: 50] | 67.4%
H[Aib]EGTFTSDYSIAMDEIHQKDFVNWLLAQC (bridge 16-20) [triple agonist of SEQ ID NO: 53] | 161%
H[Aib]QGTFTSDYSIAMDEIHQKDFVNWLLAQC (bridge 16-20) [triple agonist of SEQ ID NO: 55] | 27.1%
H[Aib]EGTFTSDYSIAMDEIHQKDFVDWLLAEC (bridge 16-20) [triple agonist of SEQ ID NO: 54] | 30.6%
H[Aib]QGTFTSDVSSYLDGQAAKEFVAWLLKGC [triple agonist of SEQ ID NO: 6] | 17%
H[Aib]QGTFTSDYSKYLDEKRQKEFVQWLLNTKC (bridge 16-20) [triple agonist of SEQ ID NO: 58] | 39.1%
H[Aib]QGTFTSDVSSYLLGQQQKEFIAWLVKGC [triple agonist of SEQ ID NO: 4] | 8.5%
H[Aib]QGTFTSDYSKYLDGQHAQCFVAWLLAGGGPSSGAPPPS [triple agonist of SEQ ID NO: 39] | 13.9%
H[Aib]QGTFTSDYSIAMDEIHQKDFVNWLLNTKC (bridge 16-20) [triple agonist of SEQ ID NO: 35] | 7.5%

Target: human GCG receptor (human, UniProt P47871 26-477)
Sequence (P47871 26-477): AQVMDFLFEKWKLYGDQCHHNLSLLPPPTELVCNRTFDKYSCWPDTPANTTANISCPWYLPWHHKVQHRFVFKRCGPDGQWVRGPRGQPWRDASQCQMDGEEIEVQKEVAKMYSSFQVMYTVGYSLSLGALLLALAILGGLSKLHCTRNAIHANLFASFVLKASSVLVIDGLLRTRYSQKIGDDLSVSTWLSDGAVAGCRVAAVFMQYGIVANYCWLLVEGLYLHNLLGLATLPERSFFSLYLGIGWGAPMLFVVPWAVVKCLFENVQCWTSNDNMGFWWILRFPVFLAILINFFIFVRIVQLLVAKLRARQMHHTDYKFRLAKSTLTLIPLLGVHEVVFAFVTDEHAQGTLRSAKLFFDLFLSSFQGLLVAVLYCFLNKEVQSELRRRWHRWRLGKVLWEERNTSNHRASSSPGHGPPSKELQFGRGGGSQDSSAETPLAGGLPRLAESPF
Assay: cell-based or functional assay

Binder | In vitro activity compared to native-type peptide (%), vs Glucagon
HGQGTFTSDCSKYLDGQRAQDFVNWLLAGGPSSGAPPPS [triple agonist of SEQ ID NO: 48] | < 0.1%
HGQGTFTSDCSKYLDEQHAQEFVAWLLAGGPSSGAPPPS [triple agonist of SEQ ID NO: 46] | < 0.1%
H[Aib]QGTFTSDYSKYLDEKRQKEFVQWLLDTC (bridge 16-20) [triple agonist of SEQ ID NO: 52] | 7.5%
H[Aib]QGTFTSDYSKYLDEKRQKEFVNWLLAQC (also: ring formation (underlined residues), positions not given here) [triple agonist of SEQ ID NO: 56] | 4.9%
H[Aib]QGTFTSDVSSYLDGQAAKEFIAWLVKGC [triple agonist of SEQ ID NO: 1] | < 0.1%
H[Aib]QGTFTSDYSKYLCEKRQKEFVQWLLNGGPSSGAPPPSG (bridge 16-20) [triple agonist of SEQ ID NO: 36] | 0.39%
H[Aib]QGTFTSDYSKYLDEKRAKEFVQWLLDHHPSSGQPPPSC (bridge 16-20) [triple agonist of SEQ ID NO: 50] | 50.5%
H[Aib]EGTFTSDYSIAMDEIHQKDFVNWLLAQC (bridge 16-20) [triple agonist of SEQ ID NO: 53] | 8.4%
H[Aib]QGTFTSDYSIAMDEIHQKDFVNWLLAQC (bridge 16-20) [triple agonist of SEQ ID NO: 55] | 0.7%
H[Aib]EGTFTSDYSIAMDEIHQKDFVDWLLAEC (bridge 16-20) [triple agonist of SEQ ID NO: 54] | 1.4%
H[Aib]QGTFTSDVSSYLDGQAAKEFVAWLLKGC [triple agonist of SEQ ID NO: 6] | < 0.1%
H[Aib]QGTFTSDYSKYLDEKRQKEFVQWLLNTKC (bridge 16-20) [triple agonist of SEQ ID NO: 58] | 2.6%
H[Aib]QGTFTSDVSSYLLGQQQKEFIAWLVKGC [triple agonist of SEQ ID NO: 4] | < 0.1%
H[Aib]QGTFTSDYSKYLDGQHAQCFVAWLLAGGGPSSGAPPPS [triple agonist of SEQ ID NO: 39] | 0.53%
H[Aib]QGTFTSDYSIAMDEIHQKDFVNWLLNTKC (bridge 16-20) [triple agonist of SEQ ID NO: 35] | < 0.1%

Target: T1, human GIP receptor (human, UniProt P48546 22-466)
T1 sequence (looked up): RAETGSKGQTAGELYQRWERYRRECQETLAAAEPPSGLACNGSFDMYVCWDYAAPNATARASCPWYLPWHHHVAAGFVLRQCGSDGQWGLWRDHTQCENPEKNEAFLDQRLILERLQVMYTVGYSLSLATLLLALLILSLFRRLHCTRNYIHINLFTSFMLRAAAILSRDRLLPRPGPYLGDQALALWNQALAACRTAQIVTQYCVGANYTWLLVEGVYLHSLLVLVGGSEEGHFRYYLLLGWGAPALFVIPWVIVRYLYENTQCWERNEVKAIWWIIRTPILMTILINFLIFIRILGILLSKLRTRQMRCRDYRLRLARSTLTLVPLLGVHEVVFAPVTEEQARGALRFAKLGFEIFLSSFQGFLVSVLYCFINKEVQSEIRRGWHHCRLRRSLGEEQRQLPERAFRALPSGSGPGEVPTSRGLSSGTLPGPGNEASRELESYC
Assay: cell-based or functional assay

Binder | In vitro activity compared to native-type peptide (%), vs GIP
HGQGTFTSDCSKYLDGQRAQDFVNWLLAGGPSSGAPPPS [triple agonist of SEQ ID NO: 48] | < 0.1%
HGQGTFTSDCSKYLDEQHAQEFVAWLLAGGPSSGAPPPS [triple agonist of SEQ ID NO: 46] | < 0.1%
H[Aib]QGTFTSDYSKYLDEKRQKEFVQWLLDTC (bridge 16-20) [triple agonist of SEQ ID NO: 52] | 0.3%
H[Aib]QGTFTSDYSKYLDEKRQKEFVNWLLAQC (also: ring formation (underlined residues), positions not given here) [triple agonist of SEQ ID NO: 56] | 0.8%
H[Aib]QGTFTSDVSSYLDGQAAKEFIAWLVKGC [triple agonist of SEQ ID NO: 1] | < 0.1%
H[Aib]QGTFTSDYSKYLCEKRQKEFVQWLLNGGPSSGAPPPSG (bridge 16-20) [triple agonist of SEQ ID NO: 36] | 0.2%
H[Aib]QGTFTSDYSKYLDEKRAKEFVQWLLDHHPSSGQPPPSC (bridge 16-20) [triple agonist of SEQ ID NO: 50] | 2.7%
H[Aib]EGTFTSDYSIAMDEIHQKDFVNWLLAQC (bridge 16-20) [triple agonist of SEQ ID NO: 53] | 1.3%
H[Aib]QGTFTSDYSIAMDEIHQKDFVNWLLAQC (bridge 16-20) [triple agonist of SEQ ID NO: 55] | 2.4%
H[Aib]EGTFTSDYSIAMDEIHQKDFVDWLLAEC (bridge 16-20) [triple agonist of SEQ ID NO: 54] | 0.1%
H[Aib]QGTFTSDVSSYLDGQAAKEFVAWLLKGC [triple agonist of SEQ ID NO: 6] | < 0.1%
H[Aib]QGTFTSDYSKYLDEKRQKEFVQWLLNTKC (bridge 16-20) [triple agonist of SEQ ID NO: 58] | 0.2%
H[Aib]QGTFTSDVSSYLLGQQQKEFIAWLVKGC [triple agonist of SEQ ID NO: 4] | < 0.1%
H[Aib]QGTFTSDYSKYLDGQHAQCFVAWLLAGGGPSSGAPPPS [triple agonist of SEQ ID NO: 39] | < 0.1%
H[Aib]QGTFTSDYSIAMDEIHQKDFVNWLLNTKC (bridge 16-20) [triple agonist of SEQ ID NO: 35] | 1.3%
